Experimental findings from patent US20220332804A1 (CSL INNOVATION, published 2022) are described below.

Common to all, as to experiment: SPR, KD relative to WT C2;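 further: biacore SPR at 37 °C, anti-C2 mAbs captured on anti-human IgG chips with alanine or serine point mutants of C2 as analyte, KD from 1:1 fit compared with wild-type C2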
Background: SPR reads the build-up and loss of mass on a sensor chip optically.

In one experiment the target is T1, human C2 I272A (human, UniProt P06681 21-752).
T1 sequence: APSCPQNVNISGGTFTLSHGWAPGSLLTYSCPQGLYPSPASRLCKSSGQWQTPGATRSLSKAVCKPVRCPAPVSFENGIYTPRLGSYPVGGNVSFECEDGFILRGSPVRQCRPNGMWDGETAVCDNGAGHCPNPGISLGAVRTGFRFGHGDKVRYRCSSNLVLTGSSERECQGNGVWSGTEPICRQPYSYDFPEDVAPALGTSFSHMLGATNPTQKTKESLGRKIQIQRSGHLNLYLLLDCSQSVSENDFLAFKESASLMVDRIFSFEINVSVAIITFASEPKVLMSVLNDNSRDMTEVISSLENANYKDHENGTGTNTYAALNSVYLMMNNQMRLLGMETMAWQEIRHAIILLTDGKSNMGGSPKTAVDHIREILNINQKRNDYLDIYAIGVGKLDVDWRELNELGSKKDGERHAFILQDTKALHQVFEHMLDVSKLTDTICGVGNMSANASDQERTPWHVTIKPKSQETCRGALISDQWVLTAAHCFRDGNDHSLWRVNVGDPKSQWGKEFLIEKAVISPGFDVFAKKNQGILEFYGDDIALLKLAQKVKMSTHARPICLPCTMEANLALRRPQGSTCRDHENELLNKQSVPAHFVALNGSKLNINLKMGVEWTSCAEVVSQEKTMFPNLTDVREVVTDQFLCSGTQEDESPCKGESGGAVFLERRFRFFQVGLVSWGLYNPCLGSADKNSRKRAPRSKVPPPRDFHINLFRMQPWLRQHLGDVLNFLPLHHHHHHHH

The target in the next experiment is T2, human C2 H435A (human, UniProt P06681 21-752).
T2 sequence: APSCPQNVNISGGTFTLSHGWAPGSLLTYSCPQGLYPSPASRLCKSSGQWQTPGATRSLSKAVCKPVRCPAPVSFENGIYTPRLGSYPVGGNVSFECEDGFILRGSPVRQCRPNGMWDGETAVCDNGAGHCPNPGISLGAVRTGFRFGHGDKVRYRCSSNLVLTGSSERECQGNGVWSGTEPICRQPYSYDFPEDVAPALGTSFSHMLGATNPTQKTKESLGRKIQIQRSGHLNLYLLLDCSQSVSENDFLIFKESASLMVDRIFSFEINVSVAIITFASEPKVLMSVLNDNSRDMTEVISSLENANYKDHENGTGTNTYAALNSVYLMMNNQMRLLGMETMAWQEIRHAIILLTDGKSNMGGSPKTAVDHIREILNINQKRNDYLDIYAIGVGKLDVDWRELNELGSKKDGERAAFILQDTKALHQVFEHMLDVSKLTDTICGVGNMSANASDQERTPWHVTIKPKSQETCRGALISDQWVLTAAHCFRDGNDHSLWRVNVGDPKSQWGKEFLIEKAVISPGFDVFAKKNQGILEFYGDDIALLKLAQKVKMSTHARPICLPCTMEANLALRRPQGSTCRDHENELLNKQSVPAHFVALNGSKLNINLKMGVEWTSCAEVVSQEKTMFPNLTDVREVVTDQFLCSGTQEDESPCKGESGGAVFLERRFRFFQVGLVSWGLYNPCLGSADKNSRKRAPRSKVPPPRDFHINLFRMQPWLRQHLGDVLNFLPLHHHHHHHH

The target in a further experiment is T3, human C2 E450A (human, UniProt P06681 21-752).
T3 sequence: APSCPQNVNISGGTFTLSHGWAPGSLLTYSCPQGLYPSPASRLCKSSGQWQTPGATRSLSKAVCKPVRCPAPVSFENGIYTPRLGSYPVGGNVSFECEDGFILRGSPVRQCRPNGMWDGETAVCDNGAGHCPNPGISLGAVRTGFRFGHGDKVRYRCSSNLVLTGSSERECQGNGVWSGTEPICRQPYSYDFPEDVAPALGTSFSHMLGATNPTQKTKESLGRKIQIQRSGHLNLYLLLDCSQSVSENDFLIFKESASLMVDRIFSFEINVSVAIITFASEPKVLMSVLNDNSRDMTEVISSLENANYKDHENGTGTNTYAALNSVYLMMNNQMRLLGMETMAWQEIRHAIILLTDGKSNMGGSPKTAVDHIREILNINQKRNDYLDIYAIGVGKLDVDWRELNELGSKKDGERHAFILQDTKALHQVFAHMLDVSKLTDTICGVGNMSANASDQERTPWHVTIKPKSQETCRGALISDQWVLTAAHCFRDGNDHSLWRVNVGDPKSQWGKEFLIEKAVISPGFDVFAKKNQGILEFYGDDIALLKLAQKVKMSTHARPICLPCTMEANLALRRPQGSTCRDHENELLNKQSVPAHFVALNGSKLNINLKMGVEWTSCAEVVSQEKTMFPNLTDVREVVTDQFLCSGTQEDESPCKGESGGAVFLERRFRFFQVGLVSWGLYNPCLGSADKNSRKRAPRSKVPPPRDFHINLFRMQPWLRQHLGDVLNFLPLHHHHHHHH

The target of the next experiment is T4, human C2 A470S (human, UniProt P06681 21-752).
T4 sequence: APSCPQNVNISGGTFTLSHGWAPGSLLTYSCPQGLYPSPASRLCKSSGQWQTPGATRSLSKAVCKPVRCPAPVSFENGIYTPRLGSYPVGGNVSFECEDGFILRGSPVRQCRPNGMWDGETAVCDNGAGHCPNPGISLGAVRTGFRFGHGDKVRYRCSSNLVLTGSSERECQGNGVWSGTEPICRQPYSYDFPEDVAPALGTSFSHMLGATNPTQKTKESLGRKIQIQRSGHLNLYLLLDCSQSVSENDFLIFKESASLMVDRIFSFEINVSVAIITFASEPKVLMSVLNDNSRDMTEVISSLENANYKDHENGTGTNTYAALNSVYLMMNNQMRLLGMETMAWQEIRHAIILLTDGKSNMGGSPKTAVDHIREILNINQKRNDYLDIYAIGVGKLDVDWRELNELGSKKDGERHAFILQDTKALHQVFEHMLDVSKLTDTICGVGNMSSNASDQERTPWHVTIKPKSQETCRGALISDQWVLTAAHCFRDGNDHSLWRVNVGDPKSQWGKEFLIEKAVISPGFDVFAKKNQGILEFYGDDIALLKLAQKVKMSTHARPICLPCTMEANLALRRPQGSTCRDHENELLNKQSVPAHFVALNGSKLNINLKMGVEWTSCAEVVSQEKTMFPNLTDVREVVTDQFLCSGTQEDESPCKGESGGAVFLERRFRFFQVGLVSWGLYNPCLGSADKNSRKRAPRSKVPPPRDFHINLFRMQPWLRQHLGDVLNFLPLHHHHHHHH

B1: RF16-242 (antibody, human IgG4 S228P, lambda, V domains shown)
VH: EVQLLQSGAEVKKPGESLKISCKGSGYSFTSYWIGWVRQMPGKGLEWMGIIYPGDSDTRYSPSFQGQVTISADKSISTAYLQWSSLKASDTAMYYCARRGHYGDYFDYWGQGTLVTVSS
VL: SYELTQPPSVSVSPGQTARITCSGDALPKKYAYWYHQKSGQAPVLVIYEDRRRPSEIPERFSGSSSGTMATLTITGAQVEDEGVYFCYSRDRAGNQRVFGGGTQLTVLG
notes: pH-dependent anti-C2 antibody from a phage display library
As for B1, the Fold diff is 1 fold in the experiment with human C2 I272A, 9 fold with human C2 H435A, 3 fold in the experiment with human C2 E450A and 1 fold in the experiment with human C2 A470S.
